From patent publication US7732209

Tests used:
Assay in all cases: EMSA
[1] = target: T1, MBP-Tnp (Mos-1 transposase, phosphorylated, insect cells) (Drosophila mauritiana) (UniProt Q7JQ07); settings: single Kd; Scatchard; 5 mM MgCl2, 20 mM Tris pH 9, ice
T1 sequence: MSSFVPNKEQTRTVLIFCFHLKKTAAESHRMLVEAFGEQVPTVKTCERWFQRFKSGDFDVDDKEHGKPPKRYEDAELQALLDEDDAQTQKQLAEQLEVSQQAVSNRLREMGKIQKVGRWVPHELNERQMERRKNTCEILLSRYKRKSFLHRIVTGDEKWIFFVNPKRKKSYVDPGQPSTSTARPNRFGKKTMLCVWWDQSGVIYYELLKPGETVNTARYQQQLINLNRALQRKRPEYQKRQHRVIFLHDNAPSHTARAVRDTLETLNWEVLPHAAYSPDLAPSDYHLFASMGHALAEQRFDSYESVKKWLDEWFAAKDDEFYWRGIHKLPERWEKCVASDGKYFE

[2] = target: T2, MBP-Tnp dephosphorylated with CIP (Drosophila mauritiana) (UniProt Q7JQ07); settings: Scatchard, 5 mM MgCl2, 20 mM Tris pH 9, ice
T2 sequence: T1 sequence

[3] = target: T3, Mos-1 mariner transposase (Tnp), produced in bacteria (Drosophila mauritiana) (UniProt Q7JQ07); settings: CITED (publication submitted), cited from earlier work
T3 sequence: T1 sequence

[4] = target: T4, Mos-1 transposase (Tnp), rabbit reticulocyte TnT, phosphorylated (Drosophila mauritiana) (UniProt Q7JQ07); settings: single Kd; Scatchard; 5 mM MgCl2, 20 mM Tris pH 9, ice
T4 sequence: T1 sequence

[5] = target: T5, Mos-1 transposase in vitro translated, dephosphorylated with CIP (Drosophila mauritiana) (UniProt Q7JQ07); settings: Scatchard, 5 mM MgCl2, 20 mM Tris pH 9, ice
T5 sequence: T1 sequence

## Mos-1 ITR 3' (EcoRI/XbaI fragment of pBS(3'))
[1]
  Kd: 39 nM
[2]; Kd1, second Kd (Kd2) 24.69 nM
  Kd: 0.66 nM
[2]; Kd2 (second site)
  Kd: 24.7 nM
[3]; Kd1, specific ITR 3' binding, Scatchard
  Kd: 0.6 nM
[3]; Kd2, ITR bound as integration target
  Kd: 10 nM
[4]
  Kd: 74 nM
[5]; Kd1, second Kd (Kd2) 15.5 nM
  Kd: 1.3 nM
[5]; Kd2 (second site)
  Kd: 15.5 nM
